# Laboratory results reported in patent US20220259605A1 (OXFORD UNIVERSITY INNOVATION, published 2022).
# T1: human CEACAM5 protein (SinoBiological) (human, UniProt P06731 35-685)
# T1 construct: also called human CEA protein; carcinoembryonic antigen
# T1 sequence: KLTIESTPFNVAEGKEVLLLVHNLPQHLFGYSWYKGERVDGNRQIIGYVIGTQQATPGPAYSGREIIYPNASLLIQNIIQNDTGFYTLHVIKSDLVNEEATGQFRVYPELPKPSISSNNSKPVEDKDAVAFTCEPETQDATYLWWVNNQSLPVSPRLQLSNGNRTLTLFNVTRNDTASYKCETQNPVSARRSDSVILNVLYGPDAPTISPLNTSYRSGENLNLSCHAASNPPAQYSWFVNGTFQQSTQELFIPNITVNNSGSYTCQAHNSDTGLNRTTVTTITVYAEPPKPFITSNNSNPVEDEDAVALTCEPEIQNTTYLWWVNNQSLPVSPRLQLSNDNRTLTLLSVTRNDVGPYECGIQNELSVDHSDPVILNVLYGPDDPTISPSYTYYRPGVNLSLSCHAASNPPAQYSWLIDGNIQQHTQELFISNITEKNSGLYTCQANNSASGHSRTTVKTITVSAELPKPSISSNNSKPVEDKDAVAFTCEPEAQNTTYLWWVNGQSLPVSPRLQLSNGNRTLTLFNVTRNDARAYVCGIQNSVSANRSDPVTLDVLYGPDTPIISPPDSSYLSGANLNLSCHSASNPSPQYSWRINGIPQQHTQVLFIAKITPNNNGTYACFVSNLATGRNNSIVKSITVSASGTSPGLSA
# B1: C43 anti-CEA nanobody, surface-displayed on E. coli through the pNV intimin display system (VHH)
# VHH: EVQLVESGGGLVQAGGSLTLSCTSSTLTFTPYRMGWYRQTPGKQRDLVADISPGDGSTKNYAGFAQGRFTISRDNIKNTVYLQMNDLKPEDTAVYYCNTYVAFVGRARTWGQGTQVTVSS
# notes: domain: β-intimin domain; also called pNVC43; pNVC43_sfGFP
# Target: T1, human CEACAM5 protein (SinoBiological)
# Assay: biological agglutination test
binder,measurement,value
B1,binding result,binds
